Test results published in patent publication US10808024B2, “Antibodies against immunocomplexes comprising cyanobacterial cyclic peptide hepatotoxins” (priority 2015, dated 2020).

B1: SA51F6: group-specific anti-immunocomplex antibody (antibody, V domains shown)
VH: EVQLLESGGGLVQPGGSLRLSCAASGFTFSDYWMHWVRQAPGKGLEWVSEIWYSSGYTNYADSVKGRFTISRDNSKNTLYLQMNSLRAEDTAVYYCARDAFPWDVFDYWGQGTLVTVSS
VL: EIVLTQSPGTLSLSPGERATLSCRASQSVSSSYLAWYQQKPGQAPRLLIYGASSRATGVPDRFSGSGSGTDFTLTISRLEPEDFAVYYCQQSSSTPWTFGQGTKVEIKRT
modifications: Clone SA51F6; DOMAIN (31)..(35) CDR1; DOMAIN (50)..(66) CDR2; DOMAIN (99)..(108) CDR3; DOMAIN (24)..(35) CDR1; DOMAIN (51)..(57) CDR2; DOMAIN (90)..(98) CDR3
B2: SA56D5: subgroup specific anti-IC antibody with MC-LR preferring specificity (antibody, V domains shown)
VH: EVQLLESGGGLVQPGGSLRLSCAASGFTFSDYYMHWVRQAPGKGLEWVSYIDGNGGYTDYADSVKGRFTISRDNSKNTLYLQMNSLRAEDTAVYYCARYWFDSSYKHRYFDYWGQGTLVTVSS
VL: EIVLTQSPGTLSLSPGERATLSCRASQSVSSSNLAWYQQKPGQAPRLLIYGASSRATGVPDRFSGSGSGTDFTLTISRLEPEDFAVYYCQQSSSYPWTFGQGTKVEIKRT
modifications: Clone SA56D5; DOMAIN (31)..(35) CDR1; DOMAIN (50)..(66) CDR2; DOMAIN (99)..(112) CDR3; DOMAIN (24)..(35) CDR1; DOMAIN (51)..(57) CDR2; DOMAIN (90)..(98) CDR3
B3: SA41F2: XR subgroup-specific anti-IC antibody (antibody, V domains shown)
VH: EVQLLESGGGLVQPGGSLRLSCAASGFTFSNYGMHWVRQAPGKGLEWVSEIDYVDGNTYYADSVKGRFTISRDNSKNTLYLQMNSLRAEDTAVYYCAREVYAHGIAAFDYWGQGTLVTVSS
VL: EIVLTQSPGTLSLSPGERATLSCRASQSVSSSALAWYQQKPGQAPRLLIYGASSRATGVPDRFSGSGSGTDFTLTISRLEPEDFAVYYCQQYSSTPWTFGQGTKVEIKRT
modifications: Clone SA41F2; DOMAIN (31)..(35) CDR1; DOMAIN (50)..(66) CDR2; DOMAIN (99)..(110) CDR3; DOMAIN (24)..(35) CDR1; DOMAIN (51)..(57) CDR2; DOMAIN (90)..(98) CDR3
B4: SA52B4: XR subgroup-specific anti-IC antibody (antibody, V domains shown)
VH: EVQLLESGGGLVQPGGSLRLSCAASGFTFSDYSMHWVRQAPGKGLEWVSEIWTNTGYTNYADSVKGRFTISRDNSKNTLYLQMNSLRAEDTAVYYCARESWEWFSIVFDYWGQGTLVTVSS
VL: EIVLTQSPGTLSLSPGERATLSCRASQSVSSSALAWYQQKPGQAPRLLIYGASSRATGVPDRFSGSGSGTDFTLTISRLEPEDFAVYYCQQYSSTPWTFGQGTKVEIKRT
modifications: Clone SA52B4; DISULFID (31)..(35) CDR1; DISULFID (50)..(66) CDR2; DISULFID (99)..(110) CDR3; DOMAIN (24)..(35) CDR1; DOMAIN (51)..(57) CDR2; DOMAIN (90)..(98) CDR3
B5: SA41A5: MC-XR subgroup-specific anti-IC antibody (antibody, V domains shown)
VH: EVQLLESGGGLVQPGGSLRLSCAASGFTFSNYYMHWVRQAPGKGLEWVSEINYDGETDYADSVKGRFTISRDNSKNTLYLQMNSLRAEDTAVYYCARDGFWYGTAFDYWGQGTLVTVSS
VL: EIVLTQSPGTLSLSPGERATLSCRASQSVSSSALAWYQQKPGQAPRLLIYGASSRATGVPDRFSGSGSGTDFTLTISRLEPEDFAVYYCQQMHSTPWTFGQGTKVEIKRT
modifications: Clone SA41A5; DOMAIN (31)..(35) CDR1; DOMAIN (50)..(66) CDR2; DOMAIN (99)..(108) CDR3; DOMAIN (24)..(35) CDR1; DOMAIN (51)..(57) CDR2; DOMAIN (90)..(98) CDR3
B6: SA60A1: subgroup specific anti-IC antibody with MC-LR preferring specificity (antibody, V domains shown)
VH: EVQLLESGGGLVQPGGSLRLSCAASGFTFSPYYMHWVRQAPGKGLEWVSYITPYDGYTDYADSVKGRFTISRDNSKNTLYLQMNSLRAEDTAVYYCARYSYVGSVRTRVFDYWGQGTLVTVSS
VL: EIVLTQSPGTLSLSPGERATLSCRASQSVSSSNLAWYQQKPGQAPRLLIYGASSRATGVPDRFSGSGSGTDFTLTISRLEPEDFAVYYCQQSYSYPWTFGQGTKVEIKRT
modifications: Clone SA60A1; DOMAIN (31)..(35) CDR1; DOMAIN (50)..(66) CDR2; DOMAIN (99)..(112) CDR3; DOMAIN (24)..(35) CDR1; DOMAIN (51)..(57) CDR2; DOMAIN (90)..(98) CDR3
B7: SA51H4: MC-XR subgroup-specific anti-IC antibody (antibody, V domains shown)
VH: EVQLLESGGGLVQPGGSLRLSCAASGFTFSDYWMHWVRQAPGKGLEWVSEIWPYDGYTNYADSVKGRFTISRDNSKNTLYLQMNSLRAEDTAVYYCARDPGPEGVFDYWGQGTLVTVSS
VL: EIVLTQSPGTLSLSPGERATLSCRASQSVSSSNLAWYQQKPGQAPRLLIYGASSRATGVPDRFSGSGSGTDFTLTISRLEPEDFAVYYCQQSSSYPWTFGQGTKVEIKRT
modifications: Clone SA51H4; DOMAIN (31)..(35) CDR1; DOMAIN (50)..(66) CDR2; DOMAIN (99)..(108) CDR3; DOMAIN (24)..(35) CDR1; DOMAIN (51)..(57) CDR2; DOMAIN (90)..(98) CDR3
B8: SA57A3: subgroup specific anti-IC antibody with MC-LR preferring specificity (antibody, V domains shown)
VH: EVQLLESGGGLVQPGGSLRLSCAASGFTFSDYYMHWVRQAPGKGLEWVSYINTYDGNTDYADSVKGRFTISRDNSKNTLYLQMNSLRAEDTAVYYCARYYNPYTRRRVFDYWGQGTLVTVSS
VL: EIVLTQSPGTLSLSPGERATLSCRASQSVSSSNLAWYQQKPGQAPRLLIYGASSRATGVPDRFSGSGSGTDFTLTISRLEPEDFAVYYCQQSSSYPWTFGQGTKVEIKRT
modifications: Clone SA57A3; DOMAIN (31)..(35) CDR1; DOMAIN (50)..(66) CDR2; DOMAIN (99)..(111) CDR3; DOMAIN (24)..(35) CDR1; DOMAIN (51)..(57) CDR2; DOMAIN (90)..(98) CDR3
B9: SA59G2: variant-specific anti-IC antibody, MC-LR (antibody, V domains shown)
VH: EVQLLESGGGLVQPGGSLRLSCAASGFTFSNYYMHWVRQAPGKGLEWVSYIDPVGGETYYADSVKGRFTISRDNSKNTLYLQMNSLRAEDTAVYYCARYYYWGYRAFDYWGQGTLVTVSS
VL: EIVLTQSPGTLSLSPGERATLSCRASQSVSSSALAWYQQKPGQAPRLLIYGASSRATGVPDRFSGSGSGTDFTLTISRLEPEDFAVYYCQQSSSLPWTFGQGTKVEIKRT
modifications: Clone SA59G2; DOMAIN (31)..(35) CDR1; DOMAIN (51)..(66) CDR2; DOMAIN (99)..(109) CDR3; DOMAIN (24)..(35) CDR1; DOMAIN (51)..(57) CDR2; DOMAIN (90)..(98) CDR3
B10: SA52C2: MC subgroup-specific anti-IC binder (antibody, V domains shown)
VH: EVQLLESGGGLVQPGGSLRLSCAASGFTFSSDVMHWVRQAPGKGLEWVSEIDPSDGTTNYADSVKGRFTISRDNSKNTLYLQMNSLRAEDTAVYYCARSYLDWPLDVWGQGTLVTVSS
VL: EIVLTQSPGTLSLSPGERATLSCRASQSVSSSNLAWYQQKPGQAPRLLIYGASSRATGVPDRFSGSGSGTDFTLTISRLEPEDFAVYYCQQMHSTPWTFGQGTKVEIKRT
modifications: Clone SA52C2; DOMAIN (31)..(35) CDR1; DOMAIN (50)..(66) CDR2; DOMAIN (99)..(107) CDR3; DOMAIN (24)..(35) CDR1; DOMAIN (51)..(57) CDR2; DOMAIN (90)..(98) CDR3
B11: SA33D5: XR subgroup-specific anti-IC antibody (antibody, V domains shown)
VH: EVQLLESGGGLVQPGGSLRLSCAASGFTFSSDVMHWVRQAPGKGLEWVSEIDPNDGSTRYADSVKGRFTISRDNSKNTLYLQMNSLRAEDTAVYYCAREYGAVSWSVVVFDYWGQGTLVTVSS
VL: EIVLTQSPGTLSLSPGERATLSCRASQSVSSSNLAWYQQKPGQAPRLLIYGASSRATGVPDRFSGSGSGTDFTLTISRLEPEDFAVYYCQQSSSYPWTFGQGTKVEIKRT
modifications: Clone SA33D5; DOMAIN (31)..(35) CDR1; DOMAIN (50)..(66) CDR2; DOMAIN (99)..(112) CDR3; DOMAIN (24)..(35) CDR1; DOMAIN (51)..(57) CDR2; DOMAIN (90)..(98) CDR3
B12: SA42E10: MC subgroup-specific anti-IC binder (antibody, V domains shown)
VH: EVQLLESGGGLVQPGGSLRLSCAASGFTFSDYAMHWVRQAPGKGLEWVSSIIPYTGTTDYADSVKGRFTISRDNSKNTLYLQMNSLRAEDTAVYYCARTDDLIGHYDVYYYFDYWGQGTLVTVSS
VL: EIVLTQSPGTLSLSPGERATLSCRASQSVSSSYLAWYQQKPGQAPRLLIYGASSRATGVPDRFSGSGSGTDFTLTISRLEPEDFAVYYCQQSSSLPWTFGQGTKVEIKRT
modifications: Clone SA42E10; DOMAIN (31)..(35) CDR1; DOMAIN (50)..(66) CDR2; DOMAIN (99)..(114) CDR3; DOMAIN (24)..(35) CDR1; DOMAIN (51)..(57) CDR2; DOMAIN (90)..(98) CDR3

These molecules were tested on immunocomplexes of CCPH variants and anti-Adda mAb (assay: Screening and cross-reactivity studies of anti-IC scFv-AP binders, specificity class).
Type: binding

Question: With B1 as the molecule, how does the “Specificity of anti-IC antibody (CCPH immunocomplexes recognized)” value (“Specificity of anti-IC antibody” below) read?
Answer: group-specific

Question: B2 was tested. Which “Specificity of anti-IC antibody” value did it give?
Answer: MC-LR preferring specificity

Question: How did the “Specificity of anti-IC antibody” value turn out when B3 was run?
Answer: specific for a subgroup XR

Question: Which “Specificity of anti-IC antibody” value does the source give for B4 here?
Answer: specific for a subgroup XR

Question: For B5, which “Specificity of anti-IC antibody” value is on record?
Answer: specific for a subgroup MC-XR

Question: Which “Specificity of anti-IC antibody” value does the source give for B6 here?
Answer: MC-LR preferring specificity

Question: How did the “Specificity of anti-IC antibody” value turn out when B7 was run?
Answer: specific for a subgroup MC-XR

Question: B8 was tested. Which “Specificity of anti-IC antibody” value did it give?
Answer: MC-LR preferring specificity

Question: How did the “Specificity of anti-IC antibody” value turn out when B9 was run?
Answer: recognize immunocomplexes comprising MC-LR

Question: With B10 as the molecule, how does the “Specificity of anti-IC antibody” value read?
Answer: MC subgroup-specific

Question: How did the “Specificity of anti-IC antibody” value turn out when B11 was run?
Answer: specific for a subgroup XR

Question: B12 was tested. Which “Specificity of anti-IC antibody” value did it give?
Answer: MC subgroup-specific
